This assay concerns the target T1, Epidermal Growth Factor Receptor (EGFR) (human, UniProt P00533 25-1210).
T1 construct: whole, on cells; also called HER1; EGF receptor
Briefly: heading of the results section on rhMATN2 added to MDA-MB-231 cells.

Experimental findings from US20190152966A1 (INSTITUTE OF CANCER RESEARCH ROYAL CANCER HOSPITAL, published 2019) are described below.

B1: recombinant human MATN2 (rhMATN2) (ligand, UniProt O00339 24-956, looked up)
chain: RERSRGRSISRGRHARTHPQTALLESSCENKRADLVFIIDSSRSVNTHDYAKVKEFIVDILQFLDIGPDVTRVGLLQYGSTVKNEFSLKTFKRKSEVERAVKRMRHLSTGTMTGLAIQYALNIAFSEAEGARPLRENVPRVIMIVTDGRPQDSVAEVAAKARDTGILIFAIGVGQVDFNTLKSIGSEPHEDHVFLVANFSQIETLTSVFQKKLCTAHMCSTLEHNCAHFCINIPGSYVCRCKQGYILNSDQTTCRIQDLCAMEDHNCEQLCVNVPGSFVCQCYSGYALAEDGKRCVAVDYCASENHGCEHECVNADGSYLCQCHEGFALNPDKKTCTKIDYCASSNHGCQHECVNTDDSYSCHCLKGFTLNPDKKTCRRINYCALNKPGCEHECVNMEESYYCRCHRGYTLDPNGKTCSRVDHCAQQDHGCEQLCLNTEDSFVCQCSEGFLINEDLKTCSRVDYCLLSDHGCEYSCVNMDRSFACQCPEGHVLRSDGKTCAKLDSCALGDHGCEHSCVSSEDSFVCQCFEGYILREDGKTCRRKDVCQAIDHGCEHICVNSDDSYTCECLEGFRLAEDGKRCRRKDVCKSTHHGCEHICVNNGNSYICKCSEGFVLAEDGRRCKKCTEGPIDLVFVIDGSKSLGEENFEVVKQFVTGIIDSLTISPKAARVGLLQYSTQVHTEFTLRNFNSAKDMKKAVAHMKYMGKGSMTGLALKHMFERSFTQGEGARPLSTRVPRAAIVFTDGRAQDDVSEWASKAKANGITMYAVGVGKAIEEELQEIASEPTNKHLFYAEDFSTMDEISEKLKKGICEALEDSDGRQDSPAGELPKTVQQPTESEPVTINIQDLLSCSNFAVQHRYLFEEDNLLRSTQKLSHSTKPSGSPLEEKHDQCKCENLIMFQNLANEEVRKLTQRLEEMTQRMEALENRLRYR
notes: also called Matrilin2; human recombinant MATN2
Turning to B1, the binding result is listed as “binds”.
